These results are taken from the supplement of paper PMC9112550, “Optimization of the antimicrobial peptide Bac7 by deep mutational scanning” (BMC Biology, 2022).

This series relates to Escherichia coli TOP10. Briefly: shrunken log2 fold change of peptide-encoding DNA abundance (4.5 h post-induction vs induction); higher = less antimicrobial activity (less host growth inhibition). As to conditions: time post-induction: 4.5 h; library: site-saturation at positions 5, 18, 19, 20.
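Further: peptides expressed intracellularly from a pBAD plasmid library in pooled LB shake-flask culture, induced with 0.3% L-arabinose, DNA abundance read by NGS, three biological replicates, DESeq2 with apeglm shrinkage.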

Take RRIRMRPPRLPRPRPRPIPTPRP: the “shrunken log2 fold change” value turned out to be 0.0467.

RRIRQRPPRLPRPRPRPSYGPRP: the “shrunken log2 fold change” value was -0.188. The result for RRIRPRPPRLPRPRPRPQSGPRP reads 0.259; that for RRIRCRPPRLPRPRPRPLVKPRP, -0.0116; that for RRIRLRPPRLPRPRPRPDTGPRP, -0.243. For RRIRCRPPRLPRPRPRPENPPRP the value was -0.0628.

In the case of RRIRMRPPRLPRPRPRPNWEPRP, the “shrunken log2 fold change” value was found to be 0.0757. In the case of RRIRCRPPRLPRPRPRPNPWPRP, the “shrunken log2 fold change” value came out at 0.017. The result for RRIRKRPPRLPRPRPRPSFEPRP reads 0.000728; that for RRIRWRPPRLPRPRPRPGFQPRP, 0.127; that for RRIRKRPPRLPRPRPRPNDWPRP, 0.455.

Regarding RRIRIRPPRLPRPRPRPTKAPRP, the “shrunken log2 fold change” value was -0.162. The result for RRIRIRPPRLPRPRPRPYYAPRP reads -0.949; that for RRIRNRPPRLPRPRPRPHHMPRP, -1.41. The result for RRIRLRPPRLPRPRPRPIAWPRP reads 0.0351; that for RRIRCRPPRLPRPRPRPSSGPRP, -0.011; that for RRIRERPPRLPRPRPRPWVTPRP, -0.0915. The result for RRIRYRPPRLPRPRPRPPPCPRP reads 0.574; that for RRIRIRPPRLPRPRPRPFEMPRP, -0.22; that for RRIRQRPPRLPRPRPRPYFQPRP, -0.428. Turning to RRIRTRPPRLPRPRPRPYAAPRP, the “shrunken log2 fold change” value was -0.445. For RRIRRRPPRLPRPRPRPIAQPRP the value was 0.129; for RRIRQRPPRLPRPRPRPHWDPRP, -0.224.

As to RRIRMRPPRLPRPRPRPKGKPRP, the “shrunken log2 fold change” value is 0.288. Regarding RRIRMRPPRLPRPRPRPRKFPRP, the “shrunken log2 fold change” value stood at 0.247. Take RRIRRRPPRLPRPRPRPPVGPRP: the “shrunken log2 fold change” value was found to be 0.366. For RRIRLRPPRLPRPRPRPQEIPRP the value was -0.0701; for RRIRRRPPRLPRPRPRPQHDPRP, 0.478. On to RRIRVRPPRLPRPRPRPWLYPRP, for which the “shrunken log2 fold change” value was -0.157. For RRIRKRPPRLPRPRPRPLVLPRP, the “shrunken log2 fold change” value is -0.0684. For RRIRARPPRLPRPRPRPEQYPRP the value was -0.0243; for RRIRYRPPRLPRPRPRPLYGPRP, -0.82; for RRIRGRPPRLPRPRPRPFPFPRP, -0.0622. The result for RRIRGRPPRLPRPRPRPFTEPRP reads 0.104; that for RRIRRRPPRLPRPRPRPDGGPRP, 0.149; that for RRIRCRPPRLPRPRPRPPVLPRP, -0.169. For RRIRRRPPRLPRPRPRPNENPRP the value was 0.256; for RRIRDRPPRLPRPRPRPWTEPRP, 0.0384. On to RRIRHRPPRLPRPRPRPPRVPRP, for which the “shrunken log2 fold change” value came out at 0.356. For RRIRLRPPRLPRPRPRPGRIPRP the value was -0.136; for RRIRKRPPRLPRPRPRPQEYPRP, -0.0576. The result for RRIRLRPPRLPRPRPRPSDVPRP reads -0.533; that for RRIRNRPPRLPRPRPRPGCYPRP, -0.24. For RRIRWRPPRLPRPRPRPSARPRP the value was 0.54; for RRIRYRPPRLPRPRPRPYETPRP, 0.112; for RRIRYRPPRLPRPRPRPIAGPRP, -0.107. RRIRARPPRLPRPRPRPRIYPRP: the “shrunken log2 fold change” value was -0.0488. The result for RRIRSRPPRLPRPRPRPEPQPRP reads 0.397. For RRIRCRPPRLPRPRPRPLTSPRP the value was 0.208; for RRIRWRPPRLPRPRPRPPMAPRP, 0.598; for RRIRNRPPRLPRPRPRPHHIPRP, -0.282. The result for RRIRERPPRLPRPRPRPEEAPRP reads 0.353. For RRIRPRPPRLPRPRPRPYDGPRP, the “shrunken log2 fold change” value is -0.7. For the sequence RRIRQRPPRLPRPRPRPVIYPRP, the “shrunken log2 fold change” value was -0.0661. For RRIRGRPPRLPRPRPRPNLSPRP the value was 0.477; for RRIRSRPPRLPRPRPRPWIFPRP, -0.14. As for RRIRCRPPRLPRPRPRPINVPRP, the “shrunken log2 fold change” value is -0.307.

With RRIRNRPPRLPRPRPRPFSLPRP, the “shrunken log2 fold change” value was -0.0274. With RRIRIRPPRLPRPRPRPSDYPRP, the “shrunken log2 fold change” value is -0.385.

With RRIRMRPPRLPRPRPRPKWCPRP, the “shrunken log2 fold change” value stood at 0.0391. For RRIRFRPPRLPRPRPRPDSFPRP the value was -0.00668. As for RRIRRRPPRLPRPRPRPHDMPRP, the “shrunken log2 fold change” value was -0.103. For the sequence RRIRGRPPRLPRPRPRPNRNPRP, the “shrunken log2 fold change” value came to 0.00949. RRIRERPPRLPRPRPRPGNMPRP: the “shrunken log2 fold change” value is -0.0808. With RRIRWRPPRLPRPRPRPWRWPRP, the “shrunken log2 fold change” value worked out at 0.0969. The result for RRIRARPPRLPRPRPRPYRLPRP reads -0.275; that for RRIRIRPPRLPRPRPRPCQNPRP, -0.282. For RRIRKRPPRLPRPRPRPGYEPRP the value was -0.0888. Take RRIRERPPRLPRPRPRPILLPRP: the “shrunken log2 fold change” value was -0.336.

Take RRIRPRPPRLPRPRPRPDPTPRP: the “shrunken log2 fold change” value is 0.166. For RRIRMRPPRLPRPRPRPMMFPRP the value was 0.251; for RRIRWRPPRLPRPRPRPPNWPRP, 0.603. With RRIRNRPPRLPRPRPRPQVHPRP, the “shrunken log2 fold change” value was -0.161.

Consider RRIRHRPPRLPRPRPRPAAAPRP, for which the “shrunken log2 fold change” value amounted to 0.443. The result for RRIRQRPPRLPRPRPRPKKMPRP reads -0.108; that for RRIRFRPPRLPRPRPRPEYCPRP, 0.0467; that for RRIRPRPPRLPRPRPRPNMVPRP, -0.772. For RRIRDRPPRLPRPRPRPWVAPRP the value was -0.0114. The result for RRIRQRPPRLPRPRPRPADDPRP reads -0.01; that for RRIRQRPPRLPRPRPRPTCRPRP, 0.133; that for RRIRGRPPRLPRPRPRPHGAPRP, -0.00969. As for RRIRCRPPRLPRPRPRPLGSPRP, the “shrunken log2 fold change” value was -0.423. For RRIRERPPRLPRPRPRPYGDPRP the value was -0.218; for RRIRSRPPRLPRPRPRPSSYPRP, -0.344.

For the sequence RRIRWRPPRLPRPRPRPSKSPRP, the “shrunken log2 fold change” value was -0.0449. The result for RRIRWRPPRLPRPRPRPKWCPRP reads -0.0668; that for RRIRWRPPRLPRPRPRPCFFPRP, 0.0878. The result for RRIRDRPPRLPRPRPRPPQYPRP reads -0.0943; that for RRIRVRPPRLPRPRPRPGLMPRP, 0.0219; that for RRIRMRPPRLPRPRPRPAIHPRP, 0.156. For the sequence RRIRERPPRLPRPRPRPSYDPRP, the “shrunken log2 fold change” value is -0.301.
